Assay results as given in article PMC5701006.

Key:
[1] = biological target: H. polygyrus TGF-β mimic (Hp-TGM), recombinant, amine-coupled to the chip (Heligmosomoides polygyrus); test: SPR; as a1 but with 2 μM hTβRII in the HBS-EP running buffer and in the injected hTβRI samples
[2] = biological target: human TGF-β3 on the chip with hTβRII extracellular domain bound (2 μM hTβRII in running buffer and samples) (human) (UniProt P37173); test: as above
[3] = biological target: H. polygyrus TGF-β mimic (Hp-TGM), recombinant, amine-coupled to the chip (Heligmosomoides polygyrus); test: SPR; BIAcore X100; hTGF-β3 or Hp-TGM amine-coupled to a CM5 chip; two-fold dilutions of hTβRI (from 4 µM downwards) injected in HBS-EP at 30 µL/min, room temperature; global fit, simple 1:1 model

B1: human TGF-β type I receptor extracellular domain (receptor)
chain: LQCFCHLCTKDNFTCVTDGLCFVSVTETTDKVIHNSMCIAEIDLIPRDRPFVCAPSSKTGSVTTTYCCNQDHCNKIELPTTVKSSPGLGPVEL
Q: What does the source list for B1?
A: Kd [1]: 348 nM; koff [1]: 0.00315 s⁻¹; kon [1]: 9070 M⁻¹ s⁻¹; Kd [2]: 367 nM; koff [2]: 0.00179 s⁻¹; kon [2]: 4890 M⁻¹ s⁻¹; Kd [3]: 351 nM; koff [3]: 0.00386 s⁻¹; kon [3]: 11000 M⁻¹ s⁻¹
